Reference: US20250340659A1 (PETMEDIX, published 2025)
Changes are numbered by the printed parent chain.

T1: canine OX40L, full length membrane form, expressed on HEK293 cells (canine)
T1 construct: also called OX40L expressing HEK; HEK OX40L cells
T1 chain: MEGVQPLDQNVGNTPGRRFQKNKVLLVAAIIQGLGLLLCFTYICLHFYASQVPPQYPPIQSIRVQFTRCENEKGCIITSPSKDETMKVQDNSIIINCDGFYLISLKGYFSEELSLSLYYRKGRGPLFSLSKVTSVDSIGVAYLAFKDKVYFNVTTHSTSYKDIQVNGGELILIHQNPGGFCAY

T2: recombinant canine OX40L ECD-TNCc-HIS protein (canine)
T2 construct: also called Trimeric OX40L probe (HIS tag); trimeric canine OX40L
T2 chain: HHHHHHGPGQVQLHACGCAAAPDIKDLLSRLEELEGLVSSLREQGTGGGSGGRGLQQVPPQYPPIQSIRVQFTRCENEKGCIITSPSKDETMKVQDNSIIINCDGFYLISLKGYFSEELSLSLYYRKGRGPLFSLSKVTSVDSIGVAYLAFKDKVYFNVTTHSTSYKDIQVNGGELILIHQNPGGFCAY

B1: PMX047 (antibody, V domains shown)
VH: EVQLVESGGDLVKPGGSLRLSCVASGFIFSSYSMSWVRQAPEKGLQLVAGINSAGSSTYYTDAVKGRFTISRDNAKNTVYLQMNSLRAEDTAIYYCAKRWVFDFWGQGTLVTVSS
VL: HIVMTQTPLSLSVSPGEPASISCKASQSLLLSYGNTYLYWFRQKPGQSPQRLIYKVSNRDPGVPDRFSGSGSGTDFTLRISRVEADDAGVYYCGQGIQDPFTFGQGTKLEIK
notes: also called PMX47
B2: PMX053 (antibody, V domains shown)
VH: B1 VH with G15A, I28T, F104Y
VL: B1 VL with H1D, L30P, L31H, Y33L, V90I
notes: also called PMX53
B3: PMX041 (antibody)
heavy: EVHLVESGGDLVKPEGSLRLSCVVSGFTFTTNDMSWVRQAPGKGLQWVAYITSDGRITTYTDAVKGRFTISRDNAKNTLYLQMNSLRTEDTAVYYCAKHSSNWSRGRFGLDYWGHGTSLFVSSASTTAPSVFPLAPSCGSTSGSTVALACLVSGYFPEPVTVSWNSGSLTSGVHTFPSVLQSSGLYSLSSMVTVPSSRWPSETFTCNVAHPASKTKVDKPVPKRENGRVPRPPDCPKCPAPESLGGPSVFIFPPKPKDTLLIARTPEVTCVVVDLGREDPEVQISWFVDGKQMQTAKTQPREEQFNGTYRVVSVLPIGHQDWLKGKQFTCKVNHIGLPSPIERTISKARGQAHQPSVYVLPPSREELSKNTVSLTCLIKDFFPPDIDVEWQSNGQQEPESKYRTTPPQLDEDGSYFLYSKLSVDKSRWQRGDTFICAVMHEALHNHYTQKSLSHSPGK
VL: SYVLTQLPSKNVTLKQPAHITCGGDNIGSKSVHWYQQKLGQAPVLIIYYDSSRPTGIPERFSGANSGNTATLTISGALAEDEADYYCQVWDNSASVFGGGTHLTVL
notes: also called PMX41
B4: PMX055 (antibody)
heavy: EVQLEESGGDLVKPEGSLRLSCVVSGFTLSTFGMSWVRQAPGKGLQWVAYISSDGRSTSYTDAVKGRFTISRDNAKNTLYLQMNSLRTDDTAVYYCVQLGRGFGIDYWGHGTSLFVSSASTTAPSVFPLAPSCGSTSGSTVALACLVSGYFPEPVTVSWNSGSLTSGVHTFPSVLQSSGLYSLSSMVTVPSSRWPSETFTCNVAHPASKTKVDKPVPKRENGRVPRPPDCPKCPAPESLGGPSVFIFPPKPKDTLLIARTPEVTCVVVDLGREDPEVQISWFVDGKQMQTAKTQPREEQFNGTYRVVSVLPIGHQDWLKGKQFTCKVNHIGLPSPIERTISKARGQAHQPSVYVLPPSREELSKNTVSLTCLIKDFFPPDIDVEWQSNGQQEPESKYRTTPPQLDEDGSYFLYSKLSVDKSRWQRGDTFICAVMHEALHNHYTQKSLSHSPGK
VL: B3 VL with K15R, T21P, S51T, N92S, S95A
notes: also called PMX55
B5: PMX050 (antibody, V domains shown)
VH: EVQLVESGGDLVKPEGSLRLSCVVSGFTFTTYDMSWVRQAPGKGLQWVAYITNDGRITTYTDAVKGRFTISRDNAKNTLYLQMNSLRTVDTGVYYCARHSSSWSRGRFGLDYWGHGTSVFVSS
VL: B3 VL with S29R, S31G
notes: also called PMX50
B6: PMX039 (antibody)
heavy: B3 heavy with H3Q, T30I, S53N, I57Y, T59S, W103Y, S104Y, L110M
VL: B3 VL with S52T, N92S
notes: also called PMX39
B7: PMX037 (antibody, V domains shown)
VH: EVQLLESGGDLVKPGGSLRLSCVASGFTFSNYEMYWVRQAPGKGLEWVARFYESGSTTYSAEAVPGRFTISRDNAKNMAYLQMNSLRAEDTAVYYCASASSSSWRFDYWGQGTLVTVSS
VL: SYVLTQLPSVSVTLGQTARITCGGDSIGSKNVYWFQQKLGQAPVLIIYDDRSRPSGIPERFSGANSGNTATLTISGALAEDEADYYCQVWDSSTGVFGGGTHLTVL
notes: also called PMX37
B8: PMX054 (antibody, V domains shown)
VH: EVHLVESGGDLVKPEGSLRLSCVVSGFTFSSYDMSWVRQAPGKGLQWVAYISSDGRSTGYTDAVKGRFTISRDNAKKTLYLQMNSLRSEDTAVYYCAKETPRWGFDYWGQGTLVTVSS
VL: B7 VL with G15R, D25A, F35H, V44L, R51S, G95S
notes: also called PMX54
B9: PMX048 (antibody, V domains shown)
VH: B7 VH with L5V, S30N, F51I, S56T, V64D, P65T, A79V, Y80F, S103T
VL: B7 VL with S29R
notes: also called PMX48
B10: PMX052 (antibody, V domains shown)
VH: EVQLVESGGDLVKPAGSLRLSCVASGFTFSSYSMSWVRQAPEKGLQLVAGISGGGSRTYYSDAVKGRFTISRDNAKNTVYLQMNSLRAEDTAIYYCAKDGGSWAGYNFDYWGQGTLVTVSS
VL: DIVMTQTPPSLSVSPRETASISCKASQSLLHSDGSTYLDWYLQKPGQSPQLLIYLGSNRFTGVSDRFSGSGSGTEFTLRISRVEANDTGVYYCGQGTQLPYTFGQGTELEIK
notes: also called PMX52
B11: PMX051 (antibody, V domains shown)
VH: EVQLVESGGDLVKPGGSLRLSCVASGFSFNTYHMNWVRQAPGKGLHWVAFINSDGGGTSYADTVKGRFTISRDYAKNTLYLQMNSLRAEDTAVYYCVSGSIWTHFDYWGQGTLVTVSS
VL: SYVLTQLPSVSMTLRQTAHITCGGDIIGSKSVYWYQQKLGQAPVLIIYRDTNRPTGIPERFSGASSGNTATLTISGALAEDEADYYCQVWDSSTQAVFGGGTHLTVL
notes: also called PMX51
B12: PMX105 (antibody, V domains shown)
VH: B11 VH with S28T, D54G, G56S, A61E, K65Q, V97A, S98C
VL: B11 VL with M12V, L45M, T51N, A77S, S93R, V97L

Target: T1, canine OX40L, full length membrane …
Test: flow cytometry
Method in brief: (§1)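 CHO supernatants at 1, 5 or 10 μg/ml in PBS/3% FBS incubated 30′ on ice with cells surface-expressing canine OX40L. Bound antibody detected with fluorescent anti-canine Fc secondary (1:1000, 30 min, dark) and measured by flow cytometry, with parental WT HEK signal subtracted where stated.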

GEO mean OX40L expressing HEK | Binder
1.95e+06 | B1
3.03e+06 | B2
1.56e+06 | B3
3.26e+06 | B4
3.08e+06 | B5
1.52e+06 | B6
1.42e+06 | B7
3.27e+06 | B8
3.92e+06 | B9
765000 | B10
3.94e+06 | B11
584000 | B12

Target: T2, recombinant canine OX40L ECD-TNCc-HIS …
Test: SPR Koff (kd1)
Experimental: (§2) Affinity (Kd) of OX40L antibodies is measured by SPR, using a recombinant canine OX40L ECD-TNCc-HIS protein (Seq ID 811) as the capturing agent (FIG. 5B).
(§3) Functional affinity is determined using a Biakore 8K (Cytiva). in brief, purified OX40L ECD-TNCc-HIS protein is covalently bound at low density to the surface of a CM5 sensor chip (Cytiva) by amine coupling, using the manufacturer's recommended protocol. Candidate antibodies are subsequently passed across the chip surface at a range of concentrations and affinity determined using the dedicated software (Biacore Insight Evaluation Software). Curves were fitted using a bivalent analyte binding model.

koff [s⁻¹] | Binder
0.000451 | B1
0.000587 | B2
0.0134 | B3
0.00366 | B4
0.000525 | B5
0.0128 | B6
0.0183 | B7
0.0345 | B8
0.00485 | B9
0.00276 | B10
0.00119 | B11
0.00174 | B12

Target: T2, recombinant canine OX40L ECD-TNCc-HIS …
Test: SPR Koff (kd2)
Experimental: as §2, §3

koff [s⁻¹] | Binder
1.5e-05 | B1
0.565 | B2
0.000409 | B3
0.401 | B4
0.161 | B5
0.00139 | B6
0.000862 | B7
0.0848 | B8
21 | B9
0.0725 | B10
4.81 | B11
1.23 | B12

Target: T1, canine OX40L, full length membrane …
Test: cell-based or functional assay

% Signal Inhibition Average [%] | % Signal Inhibition Rep1 [%] | % Signal Inhibition Rep2 [%] | % Signal Inhibition Rep3 [%] | Binder
61.6 | 49.3 | 73.1 | 62.3 | B1
39.7 | 24.5 | 45.8 | 48.9 | B2
80.1 | 86.4 | 78.2 | 75.6 | B3
52.8 | 48.3 | 57.7 | 52.3 | B4
76.6 | 68.7 | 83.3 | 77.6 | B5
80.6 | 81.7 | 86.6 | 73.6 | B6
78.4 | 85.7 | 79.8 | 69.8 | B7
32 | 21 | 32.8 | 42 | B8
69.9 | 57.5 | 69.3 | 82.9 | B9
22.2 | 15.7 | 29.2 | 21.7 | B10
84.1 | 82.2 | 75.3 | 94.7 | B11
84.2 | 85.4 | 94.8 | 72.5 | B12

Target: T2, recombinant canine OX40L ECD-TNCc-HIS …
Test: SPR KD1, bivalent analyte model
Experimental: as §2, §3

Kd [nM] | Binder
12.5 | B1
3.4 | B2
1590 | B3
5.43 | B4
1.31 | B5
46.4 | B6
308 | B7
5.76 | B8
12.2 | B9
12 | B10
7.92 | B11
17.6 | B12

Target: T1, canine OX40L, full length membrane …
Test: flow cytometry, OX40L HEK minus WT HEK
Method in brief: as §1

GEO mean difference | Binder
1.92e+06 | B1
3e+06 | B2
1.53e+06 | B3
3.23e+06 | B4
3.06e+06 | B5
1.49e+06 | B6
1.39e+06 | B7
3.24e+06 | B8
3.9e+06 | B9
734000 | B10
3.92e+06 | B11
580000 | B12
